Results from US8591913B2, “Methods of decreasing adipose tissue” (Toru Miyazaki, priority 2009, dated 2013).

B1: mouse AIM: protein consisting of the amino acid sequence shown in SEQ ID NO: 5; recombinant, purified from HEK293T culture supernatant (protein)
chain: MAPLFNLMLAILSIFVGSCFSESPTKVQLVGGAHRCEGRVEVEHNGQWGTVCDDGWDRRDVAVVCRELNCGAVIQTPRGASYQPPASEQRVLIQGVDCNGTEDTLAQCELNYYVFDCSHEEDAGAQCENPDSDLLFIPEDVRLVDGPGHCQGRVEVLHQSQWSTVCKAGWNLQVSKVVCRQLGCGRALLTYGSCNKNTQGKGPIWMGKMSCSGQEANLRSCLLSRLENNCTHGEDTWMECEDPFELKLVGGDTPCSGRLEVLHKGSWGSVCDDNWGEKEDQVVCKQLGCGKSLHPSPKTRKIYGPGAGRIWLDDVNCSGKEQSLEFCRHRLWGYHDCTHKEDVEVICTDFDV
modifications: mouse
notes: recombinant, purified from HEK293T culture supernatant
B2: AIM: apoptosis inhibitor of macrophage, secretory protein with three SRCR domains; recombinant mouse and human AIM in Example 2, mouse AIM in Examples 3-16 (protein)
chain: ESPTKVQLVGGAHRCEGRVEVEHNGQWGTVCDDGWDRRDVAVVCRELNCGAVIQTPRGASYQPPASEQRVLIQGVDCNGTEDTLAQCELNYYVFDCSHEEDAGAQCENPDSDLLFIPEDVRLVDGPGHCQGRVEVLHQSQWSTVCKAGWNLQVSKVVCRQLGCGRALLTYGSCNKNTQGKGPIWMGKMSCSGQEANLRSCLLSRLENNCTHGEDTWMECEDPFELKLVGGDTPCSGRLEVLHKGSWGSVCDDNWGEKEDQVVCKQLGCGKSLHPSPKTRKIYGPGAGRIWLDDVNCSGKEQSLEFCRHRLWGYHDCTHKEDVEVICTDFDV

Tests used:
[1] = test system: adipocytes in the adipose tissue of AIM-/- mice; assay: Endocytosis of injected rAIM into adipose tissue of AIM-/- mice (histology); type: in vivo, mouse; details: 3 hours
Protocol: Further, mouse rAIM was directly injected into epididymal adipose tissue in obese AIM^−/− mice, and the adipose tissue was histologically analyzed. That is, total 100 μg of rAIM was directly injected into several sites of the epididymal adipose tissue. At 3 hours after the injection, tissue sections from the epididymal adipose tissue were made, and the tissue sections were stained with the anti-AIM antibody and the anti-macrophage antibody.
In addition, rAIM was systemically administered by intravenous injection to AIM^−/− mice, and subsequently adipose tissues were histologically analyzed. That is, 200 μg of rAIM was systemically administered by the intravenous injection to the AIM^−/− mice. At 3 hours after the injection, tissue sections were made from the epididymal adipose tissue, and the tissue sections were stained with the anti-AIM antibody and the anti-macrophage antibody.

CD36 = target: T1, CD36 (Mus musculus, UniProt Q08857); assay: Incorporation of intravenously injected rAIM into adipose tissue of CD36-/- and CD36+/+ mice; type: in vivo; details: mouse rAIM 300 μg/mouse intravenous, 16 hours, epididymal adipose tissue
T1 construct: endogenous in cells; host or cells: differentiated 3T3-L1 adipocytes
T1 sequence (Q08857 whole entry): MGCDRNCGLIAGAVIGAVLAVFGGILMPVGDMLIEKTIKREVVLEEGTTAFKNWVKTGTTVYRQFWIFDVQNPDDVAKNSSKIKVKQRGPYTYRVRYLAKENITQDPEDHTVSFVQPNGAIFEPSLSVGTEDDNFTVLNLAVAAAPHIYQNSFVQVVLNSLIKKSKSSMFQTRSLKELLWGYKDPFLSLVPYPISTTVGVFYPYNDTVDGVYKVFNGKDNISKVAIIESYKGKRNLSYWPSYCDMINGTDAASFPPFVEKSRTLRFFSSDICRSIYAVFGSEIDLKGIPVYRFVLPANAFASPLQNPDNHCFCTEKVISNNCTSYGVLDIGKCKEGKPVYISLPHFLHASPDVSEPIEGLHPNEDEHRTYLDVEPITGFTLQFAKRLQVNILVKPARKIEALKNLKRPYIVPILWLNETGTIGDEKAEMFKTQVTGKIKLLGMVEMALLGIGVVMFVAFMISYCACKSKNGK
Protocol: Mouse rAIM was intravenously injected into each of a CD36^−/− mouse which was deficient for CD36 and a wild-type CD36^+/+ mouse, and the incorporation of rAIM into the adipose tissues was analyzed. That is, an injection prepared by dissolving rAIM in PBS was intravenously injected into each of the CD36^−/− mouse and the CD36^+/+ mouse (300 μg/mouse). At 16 hours after the injection, the mice were sacrificed, and tissue sections were made from their epididymal adipose tissue. Then, the tissue sections were stained with an anti-AIM antibody.

endogenous FAS = target: T2, endogenous FAS (Mus musculus, UniProt P19096); assay: Co-precipitation of endocytosed HA-tagged rAIM with endogenous FAS from adipose tissue lysates; type: binding; details: HA-tagged rAIM injected into AIM-/- mice, adipose tissue lysate, anti-HA antibody, Western blotting for FAS
T2 construct: from tissue; host or cells: epididymal adipose tissue of obese AIM-/- mice
T2 sequence (P19096 whole entry): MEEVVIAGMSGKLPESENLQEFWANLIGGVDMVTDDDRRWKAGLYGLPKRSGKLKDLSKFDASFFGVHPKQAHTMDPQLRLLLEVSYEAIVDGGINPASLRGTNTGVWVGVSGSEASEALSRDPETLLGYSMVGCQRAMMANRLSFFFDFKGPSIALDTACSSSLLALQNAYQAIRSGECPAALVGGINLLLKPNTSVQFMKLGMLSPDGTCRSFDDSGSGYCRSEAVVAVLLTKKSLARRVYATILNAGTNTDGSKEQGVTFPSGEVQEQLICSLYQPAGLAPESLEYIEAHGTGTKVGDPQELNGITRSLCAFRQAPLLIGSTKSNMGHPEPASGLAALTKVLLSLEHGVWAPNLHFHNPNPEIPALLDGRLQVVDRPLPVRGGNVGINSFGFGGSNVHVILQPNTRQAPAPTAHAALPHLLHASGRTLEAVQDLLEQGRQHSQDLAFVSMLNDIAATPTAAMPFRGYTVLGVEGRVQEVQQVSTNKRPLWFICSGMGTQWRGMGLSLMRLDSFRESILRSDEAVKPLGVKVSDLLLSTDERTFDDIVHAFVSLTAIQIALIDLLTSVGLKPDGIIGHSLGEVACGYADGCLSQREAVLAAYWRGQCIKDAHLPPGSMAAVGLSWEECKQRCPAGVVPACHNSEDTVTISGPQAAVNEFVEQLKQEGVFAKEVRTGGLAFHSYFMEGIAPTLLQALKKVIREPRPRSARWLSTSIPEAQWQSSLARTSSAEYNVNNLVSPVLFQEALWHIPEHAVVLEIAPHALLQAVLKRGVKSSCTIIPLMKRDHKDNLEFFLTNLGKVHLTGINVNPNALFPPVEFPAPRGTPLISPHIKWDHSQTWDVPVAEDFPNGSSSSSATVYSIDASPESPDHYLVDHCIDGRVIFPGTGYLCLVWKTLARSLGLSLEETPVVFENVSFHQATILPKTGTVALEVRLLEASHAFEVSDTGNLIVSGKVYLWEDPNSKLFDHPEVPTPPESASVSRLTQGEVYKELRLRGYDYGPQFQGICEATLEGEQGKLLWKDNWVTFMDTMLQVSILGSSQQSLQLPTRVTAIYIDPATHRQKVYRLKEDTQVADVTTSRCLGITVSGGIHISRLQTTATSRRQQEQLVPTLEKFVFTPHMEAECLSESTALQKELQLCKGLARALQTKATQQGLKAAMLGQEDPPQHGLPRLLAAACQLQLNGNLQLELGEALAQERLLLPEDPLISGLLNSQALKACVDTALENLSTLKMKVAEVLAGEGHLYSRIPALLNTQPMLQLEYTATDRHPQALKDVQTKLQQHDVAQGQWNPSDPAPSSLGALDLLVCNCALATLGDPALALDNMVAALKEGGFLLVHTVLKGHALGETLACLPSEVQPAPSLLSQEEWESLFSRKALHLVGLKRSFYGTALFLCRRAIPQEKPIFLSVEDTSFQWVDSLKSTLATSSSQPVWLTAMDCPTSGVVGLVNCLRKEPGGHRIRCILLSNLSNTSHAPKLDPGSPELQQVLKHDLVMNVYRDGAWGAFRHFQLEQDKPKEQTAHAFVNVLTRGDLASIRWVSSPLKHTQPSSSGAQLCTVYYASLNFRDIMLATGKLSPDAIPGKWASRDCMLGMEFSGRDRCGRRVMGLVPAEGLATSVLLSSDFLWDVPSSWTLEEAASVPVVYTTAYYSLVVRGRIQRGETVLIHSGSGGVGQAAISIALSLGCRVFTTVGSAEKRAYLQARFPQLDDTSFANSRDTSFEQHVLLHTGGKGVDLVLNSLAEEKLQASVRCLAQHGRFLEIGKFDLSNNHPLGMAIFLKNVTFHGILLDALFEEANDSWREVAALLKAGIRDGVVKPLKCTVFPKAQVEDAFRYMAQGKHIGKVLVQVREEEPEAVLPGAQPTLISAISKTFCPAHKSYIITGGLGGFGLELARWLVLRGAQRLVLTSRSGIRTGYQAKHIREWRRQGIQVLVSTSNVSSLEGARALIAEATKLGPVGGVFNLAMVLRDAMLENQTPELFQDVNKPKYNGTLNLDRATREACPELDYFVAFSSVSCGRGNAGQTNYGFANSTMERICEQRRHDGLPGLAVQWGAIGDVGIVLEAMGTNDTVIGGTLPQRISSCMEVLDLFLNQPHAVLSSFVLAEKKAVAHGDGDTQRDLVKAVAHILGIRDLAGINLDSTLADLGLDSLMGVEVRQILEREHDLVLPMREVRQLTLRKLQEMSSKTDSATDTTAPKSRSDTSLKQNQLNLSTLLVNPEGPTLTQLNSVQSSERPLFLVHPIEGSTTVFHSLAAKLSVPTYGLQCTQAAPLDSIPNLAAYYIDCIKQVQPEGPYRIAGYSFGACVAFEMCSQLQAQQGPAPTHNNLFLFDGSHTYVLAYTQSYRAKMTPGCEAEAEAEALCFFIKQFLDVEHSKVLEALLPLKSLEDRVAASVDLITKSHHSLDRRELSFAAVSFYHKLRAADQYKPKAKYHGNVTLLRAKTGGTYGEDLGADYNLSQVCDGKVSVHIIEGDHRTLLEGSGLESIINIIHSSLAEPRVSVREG
Protocol: Further, the endocytosed rAIM was precipitated using lysates derived from those adipose tissues to examine whether endogenous FAS was co-precipitated or not. That is, the presence of FAS in the precipitate was analyzed by Western blotting using HA-tagged rAIM and an anti-HA antibody.
It was confirmed that AIM was bound to FAS both in vivo and in vitro. That is, mouse rAIM tagged with HA in a total amount of 100 μg was directly injected in several sites in the epididymal adipose tissue in the obese AIM^−/− mouse. At 3 hours after the injection, the epididymal adipose tissues were collected. Then, endocytosed rAIM was precipitated from a lysate of the adipose tissues using an anti-HA antibody. Then, it was analyzed by immunoblotting (WB) whether FAS was present in the resulting precipitate.

obese AIM-/- mice = assay: Intravenous administration of AIM to obese AIM-/- mice; type: in vivo, mouse
Protocol: Obese AIM^−/− mice were produced by giving HFD for 20 weeks or more. Meanwhile, a purified recombinant mouse AIM protein was prepared, and an AIM solution in which the AIM protein had been dissolved at a concentration of 0.2 mg/mL in phosphate buffered saline (PBS, pH 7.4) was prepared as an injection. Then, the AIM injection was administered to the mice from the tail vein twice a week for 4 weeks.
A dosage was 1 μg per 1 g of the body weight of the mouse. The dosage was determined based on the AIM concentration in the culture medium in the above-mentioned in vitro experiments, by considering that the AIM concentration in the blood of the mouse was a similar level to the AIM concentration in the culture medium.
In addition, as a control, the same amount of bovine serum albumin (BSA) was administered via the tail vein in the same schedule to the obese AIM^−/− mice produced by giving HFD for 20 weeks or more. Then, the body weight of the mice after being administered was measured, and the visceral white adipose tissue was collected and its weight was measured.
FIG. 22A and FIG. 22B show the results of observing adipose tissue sections stained with hematoxylin and eosin (HE) under a microscope.

mouse CD36 = target: T3, mouse CD36 (Mus musculus, UniProt Q08857); assay: Binding of AIM to CD36-overexpressing HEK293 cells (confocal microscopy); details: HEK293 cells overexpressing FLAG-tagged mouse CD36, cultured with mouse AIM for 3 hours
T3 construct: expressed in transfected cells; host or cells: HEK293 (called HEK293T)
T3 sequence (Q08857 whole entry): as the sequence (Q08857 whole entry) above
Protocol: CD36 is a twice-transmembrane-type molecule, is expressed on adipocytes and macrophages, and is involved in intracellular internalization of many molecules including fatty acids, LDL, and the like. Thus, HEK293 cells in which mouse CD36 fused with a FLAG-tag at its C terminus was overexpressed were produced, and the cells were cultured with mouse AIM for 3 hours. Subsequently, the cells were collected, stained using an anti-AIM antibody and an anti-CD36 antibody, and observed under a confocal microscope.

3T3-L1 cells = assay: Endocytosis of AIM into differentiated 3T3-L1 cells (confocal and immunoelectron microscopy); type: cell-based, mouse
Protocol: Subsequently, the cells were collected, and intracellularly stained using an anti-AIM antibody. Further, nuclei in the cells were stained using DAPI.
FIG. 16A and FIG. 16B show immunoelectron micrographs of the cells cultured for 3 hours (3 hr) and 12 hours (overnight) after being loaded with AIM, respectively.

[2] = Stability of AIM functions (drying and redissolution, acidic condition); type: physicochemical
3T3-L1 preadipocytes = assay: Differentiation of 3T3-L1 preadipocytes into mature adipocytes, oil-red-o staining; type: cell-based, mouse; details: AIM concentration reduced to 1 μg/mL and 0.1 μg/mL; data not shown
[3] = AIM iv versus albumin, HE-stained sections
[4] = mouse AIM 1 μg per 1 g body weight, tail vein, twice a week for 4 weeks, versus BSA

Molecule | staining of macrophages in the adipose tissues with the anti-AIM antibody ([1]; 200 μg rAIM intravenous injection) | signals from the endocytosed rAIM in the adipocytes in the adipose tissues ([1]; 200 μg rAIM intravenous injection, levels lower than after direct injection) | endocytosis of exogenous rAIM into adipocytes in the adipose tissue ([1]; total 100 μg mouse rAIM directly injected into epididymal adipose tissue of obese AIM-/- mice) | amount of rAIM internalized into the adipocytes, CD36-/- mouse compared with CD36+/+ mouse (CD36) | co-precipitation of endocytosed rAIM and endogenous FAS (endogenous FAS) | accumulation of macrophages in the adipose tissues (obese AIM-/- mice; [3]) | size of adipocytes in the adipose tissues (obese AIM-/- mice; [3]) | amount of food intake (obese AIM-/- mice; administration of AIM, iv) | histology of adipose tissues, observed locally (in a spotty pattern) (obese AIM-/- mice; mouse AIM 1 μg per 1 g body weight, tail vein, twice a week for 4 weeks) | body weight (obese AIM-/- mice; [4]) | total weight of the adipose tissue (obese AIM-/- mice; [4]) | lipolysis in the adipose tissues of the obese mouse (obese AIM-/- mice; systemic intravenous administration of purified AIM protein) | binding of AIM to sites at which CD36 was expressed on the cells (mouse CD36) | localisation of AIM, immunoelectron microscope (3T3-L1 cells; cells cultured in the presence of AIM for 3 hours) | localisation of AIM, immunoelectron microscope (3T3-L1 cells; cells cultured in the presence of AIM for 12 hours) | accumulation of AIM on phagosomes, phagolysosomes, or mitochondria (3T3-L1 cells; immunoelectron microscope) | endocytosis of AIM into the cytoplasm, confocal microscope (3T3-L1 cells; mouse AIM 5 μg/mL, 3 hours, day 4 of culture) | functions of AIM after drying and redissolution ([2]; drying such as lyophilization, redissolution) | functions of AIM under an acidic condition ([2]; pH of about 2 to 3) | differentiation inhibitory effect by AIM (3T3-L1 preadipocytes)
B1 | also stained | detected | endocytosed into adipocytes | remarkably smaller | co-precipitated | – | – | – | – | – | – | – | – | – | – | – | – | – | – | –
B2 | – | – | – | – | – | remarkable accumulation | remarkably reduced | No change | shrinkage and lysis of adipocytes | no significant difference | no significant difference | induced lipolysis | had been bound to sites | accumulated like the dots on the membrane of particles thought to be endosomes | migrated therefrom into the cytoplasm | No AIM was accumulated | endocytosed like dots | not lost | does not lose its functions | reduced
